Test [1] concerns the target T1, NSP12 peptide on HLA-A*02:01 (human).
T1 peptide: FVDGVPFVV
Put plainly: activation reporter or marker.

Test [2] concerns the target T2, NSP12 peptide on HLA-A*02:01 (human).
T2 peptide: TMADLVYAL
Put plainly: activation reporter or marker.

B1: CoVTCR 19 (TCR)
alpha TRAV35 TRAJ43 CDR3: CAGQLARDMRF
beta TRBV13 TRBJ2-7 CDR3: CASRWAGGTAYEQYF
As for B1, the binding result in test [1] is “recognises”.

B2: CoVTCR 18 (TCR)
alpha TRAV12-1 TRAJ45 CDR3: CVLPSGGGADGLTF
beta TRBV5-1 TRBJ2-1 CDR3: CASTGLAGGPYNEQFF
As to B2, in test [1], the binding result is “recognises”.

B3: CoVTCR 12 (TCR)
alpha TRAV17 TRAJ57 CDR3: CATVLPTQGGSEKLVF
beta TRBV18 TRBJ1-1 CDR3: CASSLTVNMNTEAFF
For B3, the binding result in test [2] is given as “recognises”.
